{"source": "IntAct's records for PubMed 16882004", "parents": {"B1": {"name": "Neuronal cell adhesion molecule (Mus musculus), Q810U4 (parent)", "chain": "MQLKIMPKKKHLSAGGVPLILFLCQMISALDVPLDLVQPPTITQQSPKDYIIDPRENIVIQCEAKGKPPPSFSWTRNGTHFDIDKDPLVTMKPGSGTLVINIMSEGKAETYEGVYQCTARNERGAAVSNNIVVRPSRSPLWTKERLEPIVLQNGQSLVLPCRPPIGLPPAIIFWMDNSFQRLPQSERVSQGLNGDLYFSNVLPEDTREDYICYARFNHTQTIQQKQPISLKVISVDELNDTIAANLSDTEFYGAKSSKERPPTFLTPEGNESHKEELRGNVLSLECIAEGLPTPIIYWIKEDGMLPANRTFYRNFKKTLQITHVSEADSGNYQCIAKNALGAVHHTISVTVKAAPYWIVAPQNLVLSPGENGTLICRANGNPKPRISWLTNGVPIEIALDDPSRKIDGDTIIFSNVQESSSAVYQCNASNKYGYLLANAFVNVLAEPPRILTSANTLYQVIANRPALLDCAFFGSPMPTIEWFKGTKGSALHEDIYVLHDNGTLEIPVAQKDSTGTYTCVARNKLGMAKNEVHLEIKDPTRIIKQPEYAVVQRGSKVSFECRVKHDHTLIPTIMWLKDNGELPNDERFSTDKDHLVVSDVKDDDGGTYTCTANTTLDSASASAVLRVVAPTPTPAPIYDVPNPPFDLELTNQLDKSVQLTWTPGDDNNSPITKFIIEYEDAMHDAGLWRHQAEVSGTQTTAQLKLSPYVNYSFRVMAENSIGRSMPSEASEQYLTKAAEPDQNPMAVEGLGTEPDNLVITWKPLNGFQSNGPGLQYKVSWRQKDGDDEWTSVVVANVSKYIVSGTPTFVPYLIKVQALNDVGFAPEPAAVMGHSGEDLPMVAPGNVRVSVVNSTLAEVHWDPVPPKSVRGHLQGYRIYYWKTQSSSKRNRRHIEKKILTFQGTKTHGMLPGLQPYSHYALNVRVVNGKGEGPASTDRGFHTPEGVPSAPSSLKIVNPTLDSLTLEWDPPSHPNGILTEYILQYQPINSTHELGPLVDLKIPANKTRWTLKNLNFSTRYKFYFYAQTSVGPGSQITEEAITTVDEAGIPPPDVGAGKGKEEWRKEIVNGSRSFFGLKGLMPGTAYKVRVGAEGDSGFVSSEDVFETGPAMASRQVDIATQGWFIGLMCAVALLILILLIVCFIRRNKGGKYPVKEKEDAHADPEIQPMKEDDGTFGEYSDAEDHKPLKKGSRTPSDRTVKKEDSDDSLVDYGEGVNGQFNEDGSFIGQYSGKKEKEPAEGNESSEAPSPVNAMNSFV"}}, "data": [{"variants_of": "B1", "conditions": "with dlg1_mouse Dlg1, Q811D0", "values": [{"variant": "V1256A", "effect of a mutation on the interaction": "disrupting interaction"}]}]}
